Read-outs that look alike come from different tables or passages of the source.
Legend:
human tonsillar B cells = assay: B lymphocyte co-stimulatory proliferation assay (3H-thymidine); format: cell-based; details: after biotinylation
Experimental: Purified recombinant Neutrokine-alpha (“rNeutrokine-alpha”) was assessed for its ability to induce activation, proliferation, differentiation or death in numerous cell based assays involving B cells, T cells, monocytes, NK cells, hematopoietic progenitors, and a variety of cell types of endothelial and epithelial origin. […] A dose-dependent response is readily observed as the amount of crosslinking agent increases in the presence of a fixed concentration of either 1L2 or rNeutrokine-alpha.
B lymphocyte proliferation assay. […] The resulting cell population was routinely greater than 95% B cells as assessed by expression of CD19 and CD20. […] Proliferation was quantitated by a 20 h pulse (1 microCi/well) of ^3H-thymidine (6.7 Ci/mM) beginning 72 h post factor addition.
In Vitro assay—Purified Neutrokine-alpha and/or Neutrokine-alphaSV protein, or truncated forms thereof, is assessed for its ability to induce activation, proliferation, differentiation or inhibition and/or death in B-cell populations and their precursors. […] Novel synergizing agents can be readily identified using this assay. […] The resulting cell population is greater than 95% B cells as assessed by expression of CD45R(B220). […] Proliferation or inhibition is quantitated by a 20 h pulse (1 uCi/well) with ^3H-thymidine (6.7 Ci/mM) beginning 72 h post factor addition. […]

[1] = tested on: Neutrokine-alpha receptor; assay: FACS binding of biotinylated Neutrokine-alpha to blood cells and cell lines; parameters: species or system human
Excerpt: In an attempt to correlate the specific biological activity on B cells with receptor expression, purified Neutrokine-alpha was biotinylated. […] In contrast, biotinylated Neutrokine-alpha bound peripheral CD20^+ B cells. Receptor expression was also detected on the B cell tumor lines REH, ARH-77, Raji, Namalwa, RPMI 8226, and IM-9 but not any of the myeloid-derived lines tested including THP-1, HL-60, K-562, and U-937. Similar results were also obtained using a biologically active FLAG-tagged Neutrokine-alpha protein instead of the chemically modified biotin-Neutrokine-alpha. […] It remains to be shown whether cellular activation may induce expression of Neutrokine-alpha receptors on peripheral blood cells, other normal cell types or established cell lines.
(§1) FACS analysis. Neutrokine-alpha expression was assessed on human cell lines, freshly isolated normal peripheral blood nucleated cells, and in vitro cultured monocytes, a mouse anti-human Neutrokine-alpha mAb 2E5 (IgG1) followed by PE-conjugated F(ab′)2 goat antibody to mouse IgG (CALTAG Laboratories, Burlingame, Calif.). Cells were analyzed using a FACScan (Becton Dickinson Immunocytometry Systems, San Jose, Calif.) with propidium iodide to exclude dead cells. Neutrokine-alpha binding was assessed using rNeutrokine-alpha biotinylated with a N-hydroxysuccinimidobiotin reagent (Pierce, Rockford, Ill.) followed by PE-conjugated streptavidin (Dako Corp, Glostrup, Denmark).

[2] = tested on: Neutrokine-alpha expression in monocytes and macrophages; assay: cytokine effect on Neutrokine-alpha expression and release in monocytes and macrophages; format: cell-based; details: single cytokine, in vitro
[3] = tested on: Neutrokine-alpha expression on monocytes; assay: FACS of Neutrokine-alpha cell surface expression with mAb 2E5; format: cell-based, human; details: IFN-gamma 100 U/mL for three days
Experimental: The expression profile of Neutrokine-alpha was assessed by Northern blot (FIG. 7B) and flow cytometric analyses (Table V and FIGS. 8A, 8B and 8C). Neutrokine-alpha is encoded by a single 2.6 kb mRNA found at high levels in peripheral blood leukocytes, spleen, lymph node and bone marrow. Lower expression levels were detected in placenta, heart, lung, fetal liver, thymus and pancreas. Among a panel of cell lines, Neutrokine-alpha mRNA was detected in HL-60 and […], but not in Raji, HeLa, or MOLT-4 cells. […] A concomitant increase in Neutrokine-alpha-specific mRNA was also detected (FIG. 8C). By contrast, Neutrokine-alpha was not expressed on freshly isolated peripheral blood granulocytes, T cells, B cells, or NK cells.
as §1

HIV = details: greater activity; cited from earlier work
Neutrokine-alpha protein [4] = molecular target: T1, Neutrokine-alpha protein (Homo sapiens, UniProt Q9Y275)
Experimental: A Phase 2, multi-center, randomized, double-blind, placebo-controlled study was performed in subjects with RA. Subjects were randomized into 4 treatment groups (placebo, 1 mg/kg, 4 mg/kg and 10 mg/kg).
An ACR20 response is defined as at least a 20% reduction in tender joint count and swollen joint count, in addition to an improvement of at least 20% on three of five other assessments of symptoms or disease manifestations (i.e., patient pain assessment, patient global assessment, physician global assessment, patient self-assessed disability, acute-phase reactant [ESR or CRP]).

Neutrokine-alpha protein [5] = molecular target: T1, Neutrokine-alpha protein; remark: listed apart in the source
Experimental: 449 subjects with SLE by ACR criteria (Tan et al., Arthritis Rheum. 25:1271-7, (1982); and Hochberg et al., Arthritis Rheum. 40:1725, (1997)) and SELENA SLEDAI score ≧4 at screening were dosed.

[6] = parameters: species or system BALB/c mice; details: mouse
Experimental: Neutrokine-alpha was radiolabeled with ^125I and injected intravenously into BALB/c mice. Three doses and 4 timepoints over a 24-hr period were studied. Biodistribution was measured by direct counting of the radioactivity in dissected whole organs or tissues and by whole body quantitative autoradiography (QAR).

B cells = assay: Neutrokine-alpha mediated B cell proliferation, enhancement by cytokines; format: cell-based; details: observed by the inventors
[7] = week 52, all treatment groups combined, reduction

T1 sequence (Q9Y275 134-285 limits assumed): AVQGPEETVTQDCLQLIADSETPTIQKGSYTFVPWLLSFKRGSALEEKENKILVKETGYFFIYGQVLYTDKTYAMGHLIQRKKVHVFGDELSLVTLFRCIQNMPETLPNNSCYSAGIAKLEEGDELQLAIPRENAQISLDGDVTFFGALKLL

In the case of “biotinylated Neutrokine-alpha: purified Neutrokine-alpha biotinylated with N-hydroxysuccinimidobiotin reagent”, the “biological function in the standard B cell proliferation assays” value (human tonsillar B cells) is reported as “retained biological function”, the “receptor expression (binding of biotinylated Neutrokine-alpha)” value ([1]; B cell tumor lines REH, ARH-77, Raji, Namalwa, RPMI 8226, IM-9) is reported as “detected” and the “binding of biotinylated Neutrokine-alpha” value ([1]; T cells, monocytes, NK cells and granulocytes of human peripheral blood) is reported as “undetectable”. The “receptor expression (binding of biotinylated Neutrokine-alpha)” value ([1]; myeloid-derived lines THP-1, HL-60, K-562, U-937) was “not any” and the “binding of biotinylated Neutrokine-alpha” value ([1]; peripheral CD20+ B cells) was “bound”.

With IFN-gamma: cytokine the “cell surface expression of Neutrokine-alpha in monocytes and macrophages” value (from here on “cell surface expression”) [2] was “enhance” and the “upregulation of Neutrokine-alpha expression on resting monocytes” value [3] was “approximately 4 fold”.

In the case of `CC[C@H]1C(=O)Nc2ccc(F)cc2N1C(=O)OC(C)C` [GW-420867X], the “activity relative to HBY097” value (HIV) is listed as 25 fold.

With “belimumab: an antibody that neutralizes Neutrokine-alpha protein” the “ACR20 response versus placebo” value (Neutrokine-alpha protein [4]; 1 mg/kg treatment group, 24 weeks (p=0.0097)) was “statistically superior”, the ACR20 response (Neutrokine-alpha protein [4]; Week 48, extension period) was “approximately 40%” and the “ACR20 response versus placebo” value (Neutrokine-alpha protein [4]; all active treatment groups combined, 24 weeks (p=0.0213)) was “statistically superior”. For the same molecule, the “CD20+ B-cells, naïve B-cells, activated B-cells and RF” value (Neutrokine-alpha protein [4]; biological activity) was “statistically significant reductions”, the “decrease of serum IgG” value (Neutrokine-alpha protein [5]; belimumab-treated arms) was 10% and the PGA (Neutrokine-alpha protein [5]; by week 16 through week 52, all active vs. placebo) was “improved”. For the same molecule, the “plasma and memory cell populations” value (Neutrokine-alpha protein [5]; in vivo) was “preserved”, the “primary efficacy endpoints (percent reduction in SS score at week 24, time to flare over 52 weeks)” value (Neutrokine-alpha protein [5]; in vivo) was “did not reach statistical significance” and the “safety, including adverse events, AE severity, infections or lab toxicity vs. placebo” value (Neutrokine-alpha protein [5]; in vivo) was “No clinically significant differences”. For the same molecule, the “severe infusion reaction events” value (Neutrokine-alpha protein [5]; in vivo) was 1, the subjects with pleurisy (Neutrokine-alpha protein [5]; in vivo) was 3.3% and the “increase of C4” value (Neutrokine-alpha protein [5]; low baseline C4, belimumab-treated arms) was 33%. The “anti-dsDNA+ subjects converted to negative” value (Neutrokine-alpha protein [5]; week 52) was 14.5%, the SS score (Neutrokine-alpha protein [5]; week 52, ANA+ subjects) was “significantly reduced” and the “median percent change in CD20+ B cells” value (Neutrokine-alpha protein [5]; [7]) was 54%. For the same molecule, the “median percent change in plasmacytoid B cells (CD20+/CD138+)” value (Neutrokine-alpha protein [5]; [7]) was 62%, the “reduction of anti-dsDNA Ab” value (Neutrokine-alpha protein [5]; week 52, baseline positive) was 30% and the “median percent change in activated B-cells (CD20+/CD69+ B cells)” value (Neutrokine-alpha protein [5]; week 52, reduction) was 70%. The SLE flares (Neutrokine-alpha protein [5]; weeks 24-52 using a 24 week baseline) was “decreased”.

For `C[C@H](Sc1nc(N)cc(Cl)n1)c1cc2ccoc2cn1` [PNU-142721], the “activity relative to delavirdine” value (HIV) is given as 20- to 50 fold.

For “radiolabeled Neutrokine-alpha: Neutrokine-alpha (amino acids 134-285 of SEQ ID NO:2) radiolabeled with 125I”, the “in vivo targeting specificity” value [6] was “high in vivo targeting specificity for lymphoid tissues”, the “QAR signal in liver and kidney” value ([6]; in vivo) was “no longer had observable levels” and the “QAR signal in spleen, lymph nodes and GALT” value ([6]; in vivo) was “still strongly positive”. For the same molecule, the “concentration of radioactivity in kidney” value ([6]; in vivo, iv, 0.01 mg/kg, 3 h) was ~5 % injected dose (ID)/g, the “concentration of radioactivity in liver” value ([6]; in vivo, iv, 0.01 mg/kg, 3 h) was ~5 % injected dose (ID)/g and the “concentration of radioactivity in lymph node” value ([6]; in vivo, iv, 0.01 mg/kg, 3 h) was 23 % injected dose (ID)/g. For the same molecule, the “concentration of radioactivity in spleen” value ([6]; in vivo, iv, 0.01 mg/kg, 3 h) was 63 % injected dose (ID)/g.

For `Nc1nc(=O)n([C@@H]2CS[C@H](CO)O2)cc1F` [COVIRACIL, emtricitabine], the “activity in vitro relative to lamivudine (3TC)” value (HIV) is listed as 3- to 10 fold.

B1: IL-4: cytokine (protein, UniProt P05112 25-153, looked up)
Interleukin-4: HKCDITLQEIIKTLNSLTEQKTLCTELTVTDIFAASKNTTEKETFCRAATVLRQFYSHHEKDTRCLGATAQQFHRHKQLIRFLKRLDRNLWGLAGLNSCPVKEANQSTLENFLERLKTIMREKYSKCSS
For B1, the “effect on Neutrokine-alpha mediated B cell proliferation” value (B cells) was “enhance” and the “cell surface expression” value [2] was “decreased”.

B2: IL-10: cytokine (protein, UniProt P22301 19-178, looked up)
Interleukin-10: SPGQGTQSENSCTHFPGNLPNMLRDLRDAFSRVKTFFQMKDQLDNLLLKESLLEDFKGYLGCQALSEMIQFYLEEVMPQAENQDPDIKAHVNSLGENLKTLRLRLRRCHRFLPCENKSKAVEQVKNAFNKLQEKGIYKAMSEFDIFINYIEAYMTMKIRN
For B2, the “effect on Neutrokine-alpha mediated B cell proliferation” value (B cells) was “enhance” and the “cell surface expression” value [2] was “enhance”.

— US8211649B2, “Methods of diagnosing and prognosing hodgkin's lymphoma” (Human Genome Sciences, Inc., priority 2006, dated 2012)
